These results are taken from patent US20250297004A1, “NECTIN-4 BINDING AGENTS” (INNATE PHARMA, priority 2022, published 2025).

“Also recorded” adds a separate entry of the source.

Experiment [1] relates to SUM190 cells subcutaneously engrafted in CB17-SCID mice. The experiment is described as follows: In vivo efficacy of ggfg-Dxd ADCs, Nectin-4 low/SUM190 mouse model of human breast cancer. To be noted: single i.v. injection 3 mg/kg, each antibody conjugated to ggfg-Dxd, DAR=8, FIG. 4. On the procedure:
SUM190 cells were subcutaneously engrafted in CB17-SCID immunodeficient mice at a dose of 0.5 million cells in 100 μl of Matrigel with growth factor diluted at ½ in PBS. When tumors reached a volume between 195 and 250 mm3, mice were randomized into groups of 9 mice for intravenous treatment with a single injection of 3 mg/kg of camptothecin ADCs. Tumor growths were followed twice a week. Kaplan Meier survival curves were established by using GraphPad Prism V7 software according to the following criteria: When the tumor volume reached 1500 mm3, mice were euthanized and considered dead on the day of sacrifice (D).

The target of the next experiment is T1, human Nectin-4 Mutant 6 (human, UniProt Q96NY8 32-510).
T1 construct: Expressed on transfected HEK293T cells; also called H238A/I239T/H241Q
T1 chain: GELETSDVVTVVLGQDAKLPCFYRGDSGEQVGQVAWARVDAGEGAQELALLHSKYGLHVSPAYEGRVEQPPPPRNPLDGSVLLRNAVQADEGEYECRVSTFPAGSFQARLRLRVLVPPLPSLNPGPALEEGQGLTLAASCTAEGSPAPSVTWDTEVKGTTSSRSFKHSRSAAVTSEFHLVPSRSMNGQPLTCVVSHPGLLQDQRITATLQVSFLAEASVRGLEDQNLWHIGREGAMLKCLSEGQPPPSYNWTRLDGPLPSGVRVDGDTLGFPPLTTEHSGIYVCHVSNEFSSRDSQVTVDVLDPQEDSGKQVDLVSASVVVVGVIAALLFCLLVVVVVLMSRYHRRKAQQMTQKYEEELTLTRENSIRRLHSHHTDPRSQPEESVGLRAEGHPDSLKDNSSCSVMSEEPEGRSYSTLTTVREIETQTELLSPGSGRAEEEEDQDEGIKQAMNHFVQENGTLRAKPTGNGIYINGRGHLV
The experiment is described as follows: binding to HEK293T cells expressing Nectin-4 mutant.

Another experiment has as its target T2, human Nectin-4 Mutant 4 (human, UniProt Q96NY8 32-510).
T2 construct: Expressed on transfected HEK293T cells; also called A72P/G73N/G75S
T2 chain: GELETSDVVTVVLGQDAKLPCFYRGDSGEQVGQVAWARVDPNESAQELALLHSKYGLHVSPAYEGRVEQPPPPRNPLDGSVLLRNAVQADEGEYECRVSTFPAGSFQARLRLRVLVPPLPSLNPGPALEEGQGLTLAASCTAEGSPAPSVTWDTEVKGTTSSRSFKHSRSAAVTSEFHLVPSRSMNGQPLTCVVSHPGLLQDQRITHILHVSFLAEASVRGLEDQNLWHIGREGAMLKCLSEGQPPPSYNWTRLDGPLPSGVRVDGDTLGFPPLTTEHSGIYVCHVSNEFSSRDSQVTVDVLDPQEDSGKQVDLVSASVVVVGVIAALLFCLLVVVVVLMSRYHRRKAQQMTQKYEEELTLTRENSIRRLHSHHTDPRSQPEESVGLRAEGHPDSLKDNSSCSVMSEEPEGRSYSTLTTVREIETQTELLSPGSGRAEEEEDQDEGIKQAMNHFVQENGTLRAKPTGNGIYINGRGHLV
Described as above.

The target in the next experiment is T3, human Nectin-4 Mutant 8 (human, UniProt Q96NY8 32-510).
T3 construct: Expressed on transfected HEK293T cells; also called T190A/T191Q/S193A
T3 chain: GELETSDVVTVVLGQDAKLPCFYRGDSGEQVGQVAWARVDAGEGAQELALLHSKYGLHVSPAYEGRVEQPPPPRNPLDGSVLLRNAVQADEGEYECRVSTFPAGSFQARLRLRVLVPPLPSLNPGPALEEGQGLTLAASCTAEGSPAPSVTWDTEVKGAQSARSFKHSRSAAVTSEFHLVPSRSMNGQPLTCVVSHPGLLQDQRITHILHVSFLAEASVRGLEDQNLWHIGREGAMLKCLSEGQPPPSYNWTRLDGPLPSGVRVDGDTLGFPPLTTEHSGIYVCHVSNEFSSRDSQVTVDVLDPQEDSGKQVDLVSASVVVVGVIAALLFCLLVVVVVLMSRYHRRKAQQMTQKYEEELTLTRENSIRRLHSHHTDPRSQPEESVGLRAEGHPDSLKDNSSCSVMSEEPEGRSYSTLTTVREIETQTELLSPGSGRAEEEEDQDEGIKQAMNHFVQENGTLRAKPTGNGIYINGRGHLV
The description is as above.

The target of another experiment is T4, human Nectin-4 Mutant 2 (human, UniProt Q96NY8 32-510).
T4 construct: Expressed on transfected HEK293T cells; also called V90S/P92A/A93S/E95A/G96D
T4 chain: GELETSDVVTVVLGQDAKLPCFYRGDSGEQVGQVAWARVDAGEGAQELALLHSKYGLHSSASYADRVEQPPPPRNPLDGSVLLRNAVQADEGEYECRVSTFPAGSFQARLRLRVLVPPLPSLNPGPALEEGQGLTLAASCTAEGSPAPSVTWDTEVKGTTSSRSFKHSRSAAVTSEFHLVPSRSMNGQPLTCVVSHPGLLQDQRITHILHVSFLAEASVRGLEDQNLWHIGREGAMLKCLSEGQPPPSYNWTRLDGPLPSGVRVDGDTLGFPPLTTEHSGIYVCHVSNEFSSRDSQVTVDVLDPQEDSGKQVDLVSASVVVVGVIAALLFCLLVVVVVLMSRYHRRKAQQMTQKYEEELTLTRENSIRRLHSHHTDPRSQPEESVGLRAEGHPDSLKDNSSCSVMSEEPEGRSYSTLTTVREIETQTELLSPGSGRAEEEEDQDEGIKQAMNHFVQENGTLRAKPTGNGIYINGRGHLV
The description is as above.

B1: 5E7 (antibody, V domains shown)
VH: QVQLQQPGAELVKPGASVKLSCKASGYIFTSYWMHWVKQRPGQGLEWIGEIDPSDSYTNYNQKFKGKATLTLDKSSSTTYMQLSSLTSEDSAVYYCVRGYGNYGDYWGQGTTLTVSSASTKGP
VL: DVVMTQAAFSNPVTLGTSASISCRSSKSLLHSNGITYLYWYLQKPGQSPQLLIYQMSNLASGVPDRFSSSGSGTDFTLRISRVEAEDVGVYYCAQNLELPWTFGGGTKLEIKRTVAAP
B1: the “control of tumor growth” value in experiment [1] (3 mg/kg) is recorded as “strong ability to prevent tumor growth; also recorded: able to effectively control tumor growth”.

B2: chimeric parental 5E7 antibody (antibody, V domains shown)
VH: QVQLQQPGAELVKPGASVKLSCKASGYIFTSYWMHWVKQRPGQGLEWIGEIDPSDSYTNYNQKFKGKATLTLDKSSSTTYMQLSSLTSEDSAVYYCVRGYGNYGDYWGQGTTLTVSS
VL: DVVMTQAAFSNPVTLGTSASISCRSSKSLLHSNGITYLYWYLQKPGQSPQLLIYQMSNLASGVPDRFSSSGSGTDFTLRISRVEAEDVGVYYCAQNLELPWTFGGGTKLEIKR
notes: Chimeric antibody, murine variable domains with human constant regions; also called ch5E7; CHG1-M-1N4-5E7
For B2, the binding result with human Nectin-4 Mutant 6, with human Nectin-4 Mutant 4, in the experiment with human Nectin-4 Mutant 8 and with human Nectin-4 Mutant 2 was “binds” throughout.

B3: N41 (antibody, V domains shown)
VH: QVQLKQSGPGLVQPSQSLSITCTVSGFSLTNYGVHWVRQSPGKGLEWLGVIWSGGSTDYNAAFISRLSISKDTSKSQVFFKMNSLQADDTAIYYCARELIHAMDNWGQGTSVTVSS
VL: DIQMTQSPASLSVSVGETVTITCRASENIYSNLAWYQQKQGNSPQLLVFAATNLADGVPSRFSGSGSGTQYSLKINSLQSEDFGTYYCQHFWGTPTFGGGTKLEIK
As for B3, the binding result with human Nectin-4 Mutant 6, in the experiment with human Nectin-4 Mutant 4, in the experiment with human Nectin-4 Mutant 8 and with human Nectin-4 Mutant 2 was “binds” throughout. Also, in experiment [1], the “control of tumor growth” value is “no longer showed the ability to control tumor growth”.
